Test results from the nanobody polyreactivity screen of Harvey et al. (2022).

Assay: yeast display, Sf9 membrane polyspecificity reagent, FACS + sequencing; frameworks hold sequencing errors
In short: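 A nanobody's polyreactivity label depends on the gate it was sorted from. Yeast display cells were stained with 10% biotinylated, detergent-solubilized Sf9 membrane reagent for 1 hour at 4 °C, enriched on streptavidin microbeads and sorted by FACS. The low and high (top ~1%) gates were set on anti-HA fluorescence for expression and streptavidin fluorescence for reagent binding.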

Row | Sequence | polyreactivity (PSR sort gate)
1 | QVQLVESGGGLVQAGRSLRLSCAASGRIFRYNTMGWYRQAPGKERELVARINRGGSTNYADSVKGRFTISRDNAKNTVYLQMNSLKAEDTAVYYCNARYTARHYPFSNFDYWGQGTQVTVSS | high polyreactivity
2 | QVQHVESGGGLVQAGGSLRLSCAASGRTFHWYAMGWYRQAPGKERELVAAIRYSAGSTYYADSVKGRFTISRDNAKNTVYLQMNSLKPEDTAVYYCAARPPYTDSSPGERTYDYWGQGTQVTVSS | low polyreactivity
3 | QVQLVESGGGLVQAGGSRRLSCAASGLIFYYYAMGWYRQAPGKERELVAAISGSGGSTYYADSVKGRFTISRDNAKNTVYLQMNSLKPEDTAVYYCNKLSWRKYLGYEYWGQGTQVTVSS | high polyreactivity
4 | QVQLVESGGGLVQAGGSLRLSCAASGIILYVNAMGCYRQAPGKEREFVAAISWGGGSTYYADSVKGRFTISRDNAKNTVYLQMNSLKREDTAVYYCAAEFWSGYPTYTYDYWGQGTQVTVSS | low polyreactivity
5 | QVQLVASGGGLVQAGGSLRLSCAASGSTFGSNAMGWYRQAPGKERELVAPINSGDSTSYADSVKGRFTISRDNAKNTVYLQMNSLKPEDTAVYYCATRYYTFVWRHDYWGQGTQVTVSS | low polyreactivity
6 | QDHLVESGGGLVQAGGSLRLSCAASGGIFYGYAMGWYRQAPGKERELVAAISTSDASTYYADSVKGRFTFSRDNAKNTVFVQMNSLKPEATAVYYCATDLPDGYDYWGQGTQVTVSS | low polyreactivity
7 | QVQLVESGGGLVQAGGSLRLSCAASGSIFGPNAMGWYRQAPGKERELVAAITNGGRTNYADSVKGRFTISRDNAKNTVYLQMNSLKPEDTAVYYCNKARYGTDDYDYWGQGTQVTVSS | low polyreactivity
8 | QVQLVESGGGLVQAGGSLRLSCAASGRIFSGNTMGWYRPAPGKERELVAAISKSGGRTYYADSVKGRFPISRVNAKNTVYLQMNSLKPEDTAVYYCNADYRSHYLYDYWGQGTQVTVSS | low polyreactivity
9 | QVQLVESGGGLVQAGGSLRLSCAASGRIFYGYAMGWYRQAPGKEWELVAAITDSGGITYYADSVKGRFTISRDNAKKTVYLQLNSLKPEDTAVYYCTALVRDPAWLSRVGYSGDYWGQGTQVTVSS | high polyreactivity
10 | QVQLVESGGGLVQAGGSLRLSCAASGRILYQYAMGWYRQAPGKERELVASISGRSGRTRYADSVKGRFTISRDNAKNTVYLQMNSLKPEDTAVYYCNAGSSVLKYDYWGQGTQVTVSS | low polyreactivity
11 | QVQLVESGGGLVQAGGSLRLSCAASGFTFNGNAMGWYRPAPGKERELVAAITRTGTDTSYADSVKGRFTISRDNAKNTVYLQMNSLKPEDTAVYYCAAPPYNGYRYGTTGYYWGQGTQVTVSS | low polyreactivity
12 | QVQLEESGGGLFQAGGSLRLICAATGSIFRVYVMGWYIQAPGKERELVAAITSSDGTTYYADSVKGRFTISRDNAKNTVYLQMNSLKPEDTALYYCNAEFYSPPVVGPRYWYPGFYWGQGTQVTVSS | low polyreactivity
13 | QVQLVESGGGLVQAGGSLRLSCAASGSIFFFYALGWYRQAPGNERELVAAISKSPSSTYYADSVKGRFTISRDNAKKTVYVQMNSLKPEDTAVYYCNTGYSGIQYYYWGQGTQVTVSS | low polyreactivity
14 | QVQLVESGGGLVQAGGSLRLSCAASGRIFHTYAMGWYIQAPGKERELVAAISRSGGSTYYADSVKGRFTISRDNAKNTVYLQMNSLKPEDTAVYYCAADIRGPYGNRYKFYYWGQGTQVTVSS | high polyreactivity
15 | QVQLVESGGGLVQAGCSLRLSCAASGSIFYGYAMGWYRQAPGKERELVAAISYSGDRTYYADSVKGRFTISRDNAKNSVYLQMNSLKPEDTAVYYCAAQRRYGDDYWGQGTQVTVSS | high polyreactivity
16 | QVQLVESGGGLVQAGGSLRLICAASGITFNKYSMGWYRQAPGKERELVAAISSRGCSTYYADSVKGRFTISRDNAKNTVYLQMNSLKPEYTAVYYCAAERGTTYAYDYWGQGTQVTVSS | high polyreactivity
17 | QVQLVESGGGLVQAGGSLRLSCAASGFTFYYYAMGWYRQAPGKERELVAAISSTGGSTYYADSVKGRFTISRDNAKNTVYLQMNSLKPEDSAVYYCNAAGYRYPGDYDYWGQGTQVTVSS | high polyreactivity
18 | QVQLVESGGGLVQAGGSLRLSCAASGFIFYDYAMGWYRQAPGKERELVAAISRGGSSTYYADSVKGRFTISRDNAKNTVYLQMNSLKPEDTAVYYCAAYRWYEYDYWGQGTQVTVSS | high polyreactivity
19 | QVQLVESGGGLVQAGGSLRLSCAASGSIFAGYAMGWYRQAPGKERELVAAITSRGGNTYYADSVKGRFTISRDNAKNTVYLQMNSLKPEDTAVYYCAADVTRWSWVGTHYYWGQGTQVTVSS | high polyreactivity
20 | QVHLVESGGGLVKAGGSLRLSCAAYGRIFSYNDMGWYRQSPGKDRELVAAISSSGGRTYYADSVKGSFTISRDNAKNTVYLQMNSMKPEDTALYYCNVLGYSYWGQGTQVTVSS | high polyreactivity
21 | QVQLVESGGGLVQAGGSLRLSCAASGSIYRQYAMGWSRPAPGKERELVAASRRGTSTYYADSVKGRFTLSRDNAKNTVYLHMNSLKPDDSAVYYCAADTSWYSWWFDYWGQGTQVTVSS | low polyreactivity
